The supplement of paper PMC9732359
± gives the uncertainty stated by the source.

Experiment: protein stability index of a GFP-peptide fusion (yeast GPS) (PSI 1-4); higher = more stable; sorted into four equal gates, so the index is relative within each strain
Method in brief: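 The protein stability index of a peptide was calculated by multiplying its read frequency in each gate by that gate's number and adding the products. The peptides were tiled 17-residue stretches of yeast proteins, fused downstream of GFP on a Cherry-expressing plasmid and carried in yeast as a pooled library. Mid-log cultures in leucine-free medium were sorted into four equal gates by GFP/Cherry ratio, and each gate's plasmids were PCR-amplified and Illumina-sequenced.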

Sequence | protein stability index (doa10∆) | protein stability index (pdr5∆) | protein stability index (san1∆) | protein stability index (ubr1∆)
LVRRLSDIKQGYTQHGG [PRE9] | 2.5 ± 0.14 | 2.06 ± 0.25 | 2.48 ± 0.09 | 
MVLFNIYDDWLDRISSY [PRP8] | 2.26 ± 0.054 | 2.47 ± 0.046 | 2.19 ± 0.075 | 2.26 ± 0.045
LEKERSILDDIKLSLKD [SMC4] |  | 2.85 ± 0.14 | 2.43 ± 0.17 | 2.91 ± 0.11
DVLKDGENNINFQKASA [BRN1] | 3.31 ± 0.16 | 3.4 ± 0.12 | 3.51 ± 0.077 | 3.31 ± 0.11
KANISLETLEHNGAPHH [RPO21] | 3.29 ± 0.16 | 3.05 ± 0.15 | 3.19 ± 0.12 | 
KKPRKPRQTKKAKAQAQ [PGD1] | 3.2 ± 0.13 | 3.48 ± 0.096 | 3.22 ± 0.062 | 3.12 ± 0.1
VIVTDPRLDAQAIKEAS [RPS0B] | 3.03 ± 0.096 | 3.1 ± 0.083 | 2.88 ± 0.072 | 2.9 ± 0.075
KEAFEEEIKQSARNYDK [SMC1] | 3.21 ± 0.078 | 3.09 ± 0.082 | 3.06 ± 0.051 | 3.31 ± 0.056
KNGALVSNILSAFKFIH [YJL039C/NUP192] | 1.71 ± 0.055 | 1.65 ± 0.046 | 1.51 ± 0.065 | 1.3 ± 0.036
KKIAQRERRAALTDFER [RPL14A] | 3.09 ± 0.3 | 3.46 ± 0.19 |  | 
PKNKLVPTLEAKRDYII [FAS1] | 1.71 ± 0.071 | 1.59 ± 0.1 | 2.63 ± 0.098 | 2.15 ± 0.11
LYYDEDINVESLTQSVC [PUP2] | 2.36 ± 0.061 | 2.25 ± 0.052 | 2.46 ± 0.064 | 2.21 ± 0.031
KSAVSHAPAYHRSKKDQ [IRR1] | 3.13 ± 0.16 | 2.79 ± 0.11 |  | 3.1 ± 0.069
DIISGKIHSILPVMESL [YJR042W/NUP85] | 2.85 ± 0.074 | 3.13 ± 0.11 | 2.84 ± 0.11 | 2.4 ± 0.062
GQEYPRIIGLSATLPNY [BRR2] | 1.9 ± 0.047 | 2.2 ± 0.044 | 1.96 ± 0.057 | 1.81 ± 0.046
PLDEIPVDVDFNLDLDD [REC8] | 2.7 ± 0.1 | 2.43 ± 0.066 | 2.24 ± 0.088 | 2.25 ± 0.066
DISGTMSGGGNHVAKGL [SMC4] | 3.19 ± 0.2 |  | 3.25 ± 0.13 | 
TKIGAKRIHSVRTRGGN [RPS8A] | 2.84 ± 0.15 | 3.05 ± 0.11 | 2.93 ± 0.088 | 2.72 ± 0.12
AETQGSKVVIDSIIDNI [IRR1] | 2.79 ± 0.098 | 3.26 ± 0.07 | 3.08 ± 0.12 | 2.99 ± 0.039
NVRVGQAVETVGQAGRP [RPN1] | 2.4 ± 0.11 | 3.14 ± 0.092 | 3.19 ± 0.072 | 3.02 ± 0.1
LNVYHYFGENSSISWKN [YJL039C/NUP192] | 1.79 ± 0.08 | 2.76 ± 0.082 | 2.65 ± 0.083 | 3.03 ± 0.1
REDEFGSIPSLTTQFVT [YDL088C/ASM4] | 3 ± 0.066 | 2.92 ± 0.058 | 3.06 ± 0.053 | 3.2 ± 0.067
MQTALRRLPEDESYARA [QCR7] | 2.78 ± 0.058 | 2.5 ± 0.066 | 2.34 ± 0.05 | 2.39 ± 0.044
NTATNALRPSDIFGANA [YOR098C/NUP1] | 3.08 ± 0.069 | 3.24 ± 0.074 | 3.27 ± 0.061 | 3.2 ± 0.074
AGANDTSNNETNNGNDD [GRR1] | 2.8 ± 0.048 | 2.23 ± 0.066 | 2.87 ± 0.072 | 2.89 ± 0.059
LQRQQRKSKLNLDNLQK [POP4] | 2.72 ± 0.077 | 3.22 ± 0.2 | 3.09 ± 0.064 | 2.92 ± 0.15

Sequence | protein stability index (doa10∆) | protein stability index (pdr5∆) | protein stability index (san1∆) | protein stability index (ubr1∆)
RPFEGLFVISTEISPMA [RRP45] | 2.67 ± 0.048 | 2.87 ± 0.049 | 3.04 ± 0.061 | 2.86 ± 0.037
YKVMHQIRACKDLKHII [PRP8] | 2.27 ± 0.041 | 2.41 ± 0.046 | 2.21 ± 0.052 | 2.19 ± 0.05
LLNEWSHNVDELLEHIE [RPN5] | 2.57 ± 0.12 | 1.9 ± 0.09 | 2.13 ± 0.19 | 1.58 ± 0.061
LQDELHKVSSQSTNLNR [YCS4] | 2.97 ± 0.061 | 3.06 ± 0.068 | 3.05 ± 0.045 | 2.87 ± 0.053
GVGKRKVWLDPNETSEI [RPL19A] | 3.13 ± 0.23 | 3.69 ± 0.24 |  | 3.04 ± 0.29
TLAEVKAAGLTAAYART [RPL13A] | 1.38 ± 0.11 | 1.89 ± 0.097 | 1.5 ± 0.12 | 1.54 ± 0.061
CWLSSVDVNTQKSFEQL [RPN11] | 2.69 ± 0.095 | 1.28 ± 0.19 | 1.4 ± 0.29 | 1.35 ± 0.065
VNNTRRRVYNRVLETTL [BRN1] | 2.5 ± 0.07 | 2.98 ± 0.094 | 2.87 ± 0.1 | 2.65 ± 0.11
QPLFSTVPEYLKTADNR [PGD1] | 2.79 ± 0.088 | 2.6 ± 0.099 | 2.87 ± 0.075 | 2.96 ± 0.057
NKIINWEISNPDFLSKY [NUT1] | 2.06 ± 0.047 | 2.41 ± 0.045 | 2.11 ± 0.11 | 1.8 ± 0.05
PTGPKTAIDKNGNITYS [FAS2] | 2.9 ± 0.061 | 3.08 ± 0.057 | 3 ± 0.059 | 2.91 ± 0.057
SKKTSPKATSSAGAVFK [YOR098C/NUP1] | 2.7 ± 0.12 | 2.42 ± 0.086 | 2.54 ± 0.085 | 2.61 ± 0.046
AVKTAETGYMSRRLMKS [RPO31] | 2.33 ± 0.13 |  | 2.52 ± 0.25 | 
AELKLAGEFGLKNKKEI [RPS9A] | 3.08 ± 0.11 | 3.21 ± 0.15 | 3.2 ± 0.18 | 3.21 ± 0.12
DSALRYSILGDRFKYRS [POP4] | 3.27 ± 0.18 | 3.04 ± 0.23 | 3.23 ± 0.098 | 
DKKSCSVDDVLSALDHI [DPB4] | 3.29 ± 0.086 | 3.23 ± 0.089 | 3.31 ± 0.054 | 3.22 ± 0.044
LEAARSEKQNDEEAAGA [PRP8] | 2.37 ± 0.097 | 2.04 ± 0.078 | 2.61 ± 0.2 | 2.32 ± 0.078
LWLKKVMEEEEQDCKCI [POP8] | 2.63 ± 0.077 | 2.7 ± 0.068 | 3.05 ± 0.078 | 2.99 ± 0.051
LFSEKTIRYLMQKQHEM [SNF6] | 2.63 ± 0.044 | 2.55 ± 0.045 | 2.44 ± 0.069 | 2.66 ± 0.034
SFLSGVKSLLSEEKIRD [SIR4] | 3.01 ± 0.088 | 3.11 ± 0.072 | 2.92 ± 0.063 | 2.92 ± 0.11
TPLSIKIMVAEWYLSHL [SRB8] | 2.83 ± 0.084 | 2.59 ± 0.095 | 2.18 ± 0.092 | 2.5 ± 0.063
GFKTPKTAIEGSYIDKK [RPS11A] | 2.98 ± 0.043 | 3.21 ± 0.052 | 3.12 ± 0.032 | 3.201 ± 0.031
RKRCKGTVGNSHKTTKE [RPL11A] | 2.94 ± 0.28 | 3 ± 0.17 | 2.99 ± 0.16 | 
LEEIRGNPLSIGTLEEI [RPT2] | 3.29 ± 0.1 | 3.42 ± 0.14 | 3.13 ± 0.076 | 3.25 ± 0.17
GGSGNGDDVVNDVQGID [RPP1] | 3.54 ± 0.25 | 3.55 ± 0.25 | 3.27 ± 0.079 | 3.1 ± 0.1
